# Experimental data as given in US20170298109A1 (SAPPORO MEDICAL UNIVERSITY, published 2017).
# Experiments:
# [1] = molecular target: T1, HLA-A*11:01 with β2-microglobulin (human); test: folding test: HLA-monomer formation after 1, 3 and 7 days, gel filtration
# T1 construct: Soluble recombinant HLA used in the folding test and in tetramer reagents
# [2] = molecular target: T2, HLA-A*02:01 with β2-microglobulin (human); test: folding test: HLA-monomer formation, gel filtration
# T2 construct: Soluble recombinant HLA used in the folding test and in tetramer reagents; also called HLA-A2
# [3] = molecular target: HLA-A*24:02 with β2-microglobulin (human); test: HLA tetramer reagent made of the RMM peptide and the HLA type, staining of induced CTLs, flow cytometry
# [4] = molecular target: T2, HLA-A*02:01 with β2-microglobulin; test: as above
# [5] = molecular target: T2, HLA-A*02:01 with β2-microglobulin; test: folding test: HLA-monomer formation from HLA, β2-microglobulin and peptide, gel filtration
Binder,binding result [1],binding result [2],also measured
KQLLNAHFRK (synthetic 10-mer) [KQL peptide],binds,,
KLLFIGTIK (synthetic 9-mer) [KLLF peptide],binds,,
ALEENVMVA (synthetic 9-mer) [ALE peptide],,binds,
HALEENVMV (synthetic 9-mer) [HAL peptide],,binds,
GTMKIHILQK (synthetic 10-mer) [GTM peptide],binds,,
SVLSEQFTK (synthetic 9-mer) [SVL peptide],binds,,
RMSSFNRHMK (synthetic 10-mer) [RMS peptide],binds,,
YASRDTYKL (synthetic 9-mer) [YAS peptide],,binds,
VLSEQFTKI (synthetic 9-mer) [VLS peptide],,binds,
RMMLVSAWL (synthetic 9-mer) [RMM peptide],,,binding result [3]: binds; binding result [4]: binds
SVLEEEVEL (synthetic 9-mer) [SVLE peptide],,binds,
MAATEISVL (synthetic 9-mer) [MAA peptide],,,binding result [5]: no binding (tested: 30 µM peptide)
SLAETAGLI (synthetic 9-mer) [SLAE peptide],,binds,
TVYKCSKCGK (synthetic 10-mer) [TVY peptide],binds,,
TVLTLKASFK (synthetic 10-mer) [TVL peptide],binds,,

# Further lines, with some results ahead:
binding result [1],binding result [2],Binder,also measured
binds,,AAAEEASTTK (synthetic 10-mer) [AAA peptide],
binds,,GLIPTVLTLK (synthetic 10-mer) [GLI peptide],
,binds,KLAVSLAET (synthetic 9-mer) [KLA peptide],
binds,,NTHTGTRPYK (synthetic 10-mer) [NTH peptide],
binds,,CSYASRDTYK (synthetic 10-mer) [CSY peptide],
,binds,ILQKHGENV (synthetic 9-mer) [ILQ peptide],
,binds,VLEEEVELV (synthetic 9-mer) [VLE peptide],
,binds,VLTVSNSNV (synthetic 9-mer) [VLT peptide],
binds,,ASGKGRRTRK (synthetic 10-mer) [ASG peptide],
